Assay: soluble on expression in E. coli; label from the status in PepcDB or PDB records

Soluble on expression in E. coli, not soluble:
MSKKQSSTPHDALFKLFLRQPETARDFLAFHLPAPIHALCDMKTLKLESRSFIDDDLRESYSDVLWSVKTEQGPGYIYCLIEHQSTSNKLIAFRMMRYAIAAMQNHLDAGYKTLPMVVPLLFYHGIESPYPYSLCWLDCFADPKLARQLYASAFPLIDVTVMPDDEIMQHRRMALLELIQKHIRQRDLMGLVEQMACLLSSGYANDRQIKGLFNYILQTGDAVRFNDFIDGVAERSPKHKESLMTIAERLRQEGEQSKALHIAKIMLESGVPLADIMRFTGLSEEELAAASRLAP
VAARTGNDPATDVRSTILTAAETCFERFGITKTTMEDVARAADMSRATVYRYFSDRESLIIESVARRARKNMKPARAFIAKWPTIEERLVEGICNNVESGLRDPMVHLLVSPSEMTLANSLLTTSGKAVELTSELWEPILRDAQEAGDIRADVDLALLCEWISELEIMCISQLNGGTGSLERFREKLRAFLVPSLLPAGN
MSHDSSGEYMVSQVLKCVKFKDLVRKALNAEAKFSPASVEYDKRRHSKYAYLVHWRGYDWKERTWEPEENLENCEELQKFKERNNMSLDHLTFEHHYEHSTWRRISLASEKCVTNRYLKTDDEIEEKRARKKAKLEEQNRKEQAKNPHASAETEPAVKKKKIEGVGSRIPKISDREGAGTSGQSSSNVSTPGITPLDNKTPRMQKKSNEIGQASTPECAIATLSIGTPQPSIIDSTYDQSDIANGSTSPQPQPVFKRKMNGQDVSDYSVHQGGTFSDGSAIEGSTSRESEDMDCTQETKKALQKAIESAREECEEIEKTIKKYPLQVTSSRVVTGFSPALTLRKFRRCQSLEMLSDHFNNNAEMEIFGKNFENSVRLDADAKPVVIKIYPQEQELFLTKQRKMPSLEMEQLVYENLVKENANNIKIAMHNIRPDKNFAQLLECLSHAYSKDDNIRFETIFNEGFPPSDEYDCRRFQAIVFLIAYCKHRLWKADPKGMAIVEASDAVKEGEIREQQIICSDRHRKCAWLQVFLKLMPDRFKFLETSGQCYHGWEGDDGPFRDDVFFHCMKYGAECQKRLFLDFNKPIGIQEETVGDYSVDAMHLLAVQYGNIQRIPSYLSIGGLDINALATHLPTKRVMRLQHYLKVWIEAHKSETTATEDRKKYYRYLNDVIRLTSESLEIFLENEVTKMIFSRMGGRWKIRMDLTYPHILRCSPLSNKSNGGDGTHQVLSCLFYPEAIGYRDGLENSKGADTEKIDELKTSQKRYKKMIEEGKGRLVLALYRIDIEFRCNLAEKEQFSLPKFTLIESDDGFKIEKLTLLRQTEGLTCYEADIGMFEMTPFSSPGCRYFGISDKAHEKDLVVPGNAHIEMRAEVDQPISFVTQLFFIKKNV
MWRSCLRLRDGGRRLLNRPAGGPSASMSPGPTIPSPARAYAPPTERKRFYQNVSITQGEGGFEINLDHRKLKTPQAKLFTVPSEALAIAVATEWDSQQDTIKYYTMHLTTLCNTSLDNPTQRNKDQLIRAAVKFLDTDTICYRVEEPETLVELQRNEWDPIIEWAEKRYGVEISSSTSIMGPSIPAKTREVLVSHLASYNTWALQGIEFVAAQLKSMVLTLGLIDLRLTVEQAVLLSRLEEEYQIQKWGNIEWAHDYELQELRARTAAGTLFIHLCSESTTVKHKLLKE
MGSDKIHHHHHHMANSNMQATDAVAQDTASASGEFDALLNQAFRPKTTQAAKAVEAAVQTLAQQALANTITVSDDAYKSISAIIAQIDFKLTEQIKLILQHPDWQKLESSWRGMEHLVYNTETDEKLKIRFMNLSKDELRRNMKRYKGIAWDQSPMFKKLYEAEYGQLGGEPYGCIIADYYFDHTPPDVDLLGSIAKVAASAHAPFIAGASPSVLQMDSWQELANPRDLTKIVTQNLEYAPWNSLRASEDSRYIGLTMPRFLARLPYGAKTNPVDEFDFEEDADGSDHTKYVWSNAAYAMGVNINRSFKHYGWCTLIRGVESGGAVENLPCHTFPTDDGGVDMKCPTEIAISDRREAELAKNGFIPLIHRKNSDYAAFIGAQSLQKPQEYYDPDATANANLSARLPYLFACSRFAHFLKCIVRDKIGSFKEREDMQRWLNEWIMNYVDADPVNSSQETKARRPLAAAEVVVEEVEGNPGYYDAKFFLRPHFQLEGLTGSLRLVTKLPSVKQGNA
MGSDKIHHHHHHMQRFKKWFLSIIKNFKQHEKIKIDLNNTKIDLNNTKIDLNNTKIDLNNTKIDLNNTKIDLNNTKIDLNNTKIDLNNTKIDLNNTKIELSQLKKEHYKVLDFHLRKITPQAFLEIVEIHLAESCNLNCFGCNHFSQIAEKEFPDIEIFKKDMQRLSEISKGIVGTFRLMGGEPLLNPNCIQFFDITRYFFPKSAIWLVTNGILLDKQNEDFWNSCQRNKMQIRPTKYPIKINWDLIKDKCDQYDIPLIFFNNGELEKTSWKFSLDPSGNCDNYHSFTNCSMANHCVQFKDGKLFTCTFPAHVQHFNKKYGNHFEVCEFDFIDIYKAKDYQEILFFLSKPIPFCRYCKVSQWAEIGKWRSSNKTKHEYLI
MGSDKIHHHHHHMKCFFESEEFEKAVEKIDRLYEKVDSIEEAEIAFLREKKPFQGVAVVKEETYTIYKTGEKLVELEDPEKAASIAYILAGEKLLSGGWVRRMVSGLLQAMIVLMEIEDENGWSHSQRVARLAERVGKKLGLSEEKLSLLREYAMLHDVGKIGIEQLMLYTPTRIRIFEQYPQDHTIMGSVFLASLEVLWDVVPIVRHHHENWDGTGYPDGLKGEEIPLEARIISVCDYYDVLTNFVSSEWEGRTKTHEEALEIIKKEAGKKFDPKVVEAFLEIFSDEAVE
MLDWEQIFATRSSRMKASEIRELLKLLEQPDIISFAGGIPDPALFPAEEFQQAYAEIFSGAQVNAALQYSVSEGYKPLREWLAGEMDKIGIDCTADNVFIVSGSQQGLDYLGKLFLSPKDTALVTWPTYLGALSAFNAYEPNYDQLNPGGNRTPEAYRETAAKLGGAVKFAYLSADFSNPTGETVDLAGREKVLALADELDIAVIEDAAYQSLRYDGEAVPPIMALDIARSGGIENTRTIYCGSFSKTLAPGLRVGYIVASAPVIRKLVLMKQAADLHSSTINQIAIERVAARGFDKQVAKIKAAYSARRDAMLSALEKYMPKTTSWTKPEGGMFIWVTLPEGMDGAALLAKSIATEKVAFVPGRAFFADGSGTNTLRISFSCANEAMIEEGMKRLGRLITTAQAETTEVLAAI
MAHHHHHHMASVGRFVQTADPAVTALESPPLPTETRLWRQSPDCQSESDSNRVSGSVLDSVKSNGGPKHASTARLHASQDLPTSVTRFLCLSSSSNSAAAKDLRRQLLVVRDCCVALGNKVKGSELLLLGGSQLSRKVEAMADFNSCLGVIFAASLTFTGETEGVAKDTLCSVVEMLKSAQESGDEKVFRAAVVKIVNRILLCTPLRPPARNAAKETARKSAGKQEQHAEQEPKLEDECLDFLTVEDGVPVLLECVWKRWLRYFEDGYVRYVKKLMAEERQALEAAAAAAAADDYNGEEAQYVDGVSATTTQTISTVPLFTTCQDYWKSPASAYAQFCYILLAIFFVRTKDFSLNYLARVTKLVQYFTYQLEFEDGEPIAVRTDTDAEEDSAQSEDEDDDRTPPQQEGPRKEKQVHSLPMPEYDKAVTQRRFRMSRRSSSQGLVPTVVSFKKAEKPRRHCHKCFFTDALPGDLRPSVEAVRQEEAEAAARDSEEHSHLPVVRRSANLDLSEHSISPQREREQLDACDASMESVQGV
MKSAELKYLDFEDFTKLIALAKEKINPIYSSSFMIYIAAMTGMRFSELLGLTWDNVDFEKGQIYVKRTWDIYKNNFAPTKNDQSVRFLAIDSSTMQVMINYKEQQEKLLKRLEIEPEHPFVFYNIKNGLITNNSLNKQLRNMCKKLGFKKIITCHGLRHTHASTMLYKGINILYVSKRLGHSSLNVTMSVYSHILKLEHHHHHH
MGSDKIHHHHHHMSENPIDAFIPEDIRDLYEIHNYRNAAQVLATGCPNEFQEIIEALRVFRLTLADIRKPGGNESDIPKRISGLLRAKGWMETRIKGDLLITKVSGTIDKNLGEKDLEGMEENESDTLEKIEELKNKGQVERIVRENFLDGHKVDYVKKRVAFDLEWNSKDQTFDRDLYAFRAFHECDLIDAAILLTRSASLNAVFEKLGPELNSDGTPKTSKNGKPKLIKTKYGASTTWMGKLLYRLNACRHGGCPVLALGITPNLITDWAEYESKNT
MQEISFRDDILPLKDKLFRLALRITFDRAEAEDVVQDTMIRVWNKREEWTQFGSIEAYCLTVAKNLAIDRSQKKEAQNVELTPEMEEESEISGPYDQ
MGSDKIHHHHHHMVEEQHVTQYGSLLKPCMSRLENLLVHQYVECWLYWSCYETETDTRIRGIWQFMFEQELKHLHIALELLRQYEKKDWQEVIPDAEFPAPLVLESNIEYVRCVLGSTVNDTACRERYVDVRNNAPETFIRYQRMVNDPVRNVMSHTFIEDYIRKNGEDYRFEVAPNPVPELRDRTKDNICVGRQPLCRNRY

Soluble on expression in E. coli, soluble:
MKLQQLRYIVEVVNHNLNVSSTAEGLYTSQPGISKQVRMLEDELGIQIFARSGKHLTQVTPAGQEIIRIAREVLSKVDAIKSVAGEHTWPDKGSLYVATTHTQARYALPGVIKGFIERYPRVSLHMHQGSPTQIAEAVSKGNADFAIATEALHLYDDLVMLPCYHWNRSIVVTPEHPLATKGSVSIEELAQYPLVTYTFGFTGRSELDTAFNRAGLTPRIVFTATDADVIKTYVRLGLGVGVIASMAVDPVSDPDLVKLDANGIFSHSTTKIGFRRSTFLRSYMYDFIQRFAPHLTRDVVDTAVALRSNEDIEAMFKDIKLPEK
GPLGSASAAASGKEGVEITYGSAIKLMHEKTKFRLHSHDVPYGSGSGQQSVTGFPGVVDSNSYWIVKPVPGTTEKQGDAVKSGATIRLQHMKTRKWLHSHLHASPISGNLEVSCFGDDTNSDTGDHWKLIIEGSGKTWKQDQRVRLQHIDTSGYLHSHDKKYQRIAGGQQEVCGIREKKADNIWLAAEGVYLPLNESSK
MSLGETAGKLPRKPTLGPETAGATLVIPGETDRLASLYARAQAEGGKVVLWAGGDAPNQMDWLKTAFESRFPGVTLDVTVDLSKFHDLRIDQELAAGTLTPDVAMLQTTFDFDKWKARDVLLRYKPVGFARQKKGYADPDGAYVTAYNNAFVPTYASVRLPAERYPTRFADYLKPAFKGKLVLTYPHDDDAVLYVYDKLERRYGSGFLRALAAQKPNFLRGTAAPAASVGADSIGSLGNLTGYATDSDTPAGYFIPTDEPFIVWNQRAAIFKAARHPATAKLLLSYLGSAEFQSSYGGWRARADVGEAPGLPPLESLKNVDVHDFTRWMTDRQRVASLRRHMAEIFGPVRGESPLRDPALMSLLGLTANDIVALPEPDLPIYEGHHHHHH
AIADNGDWGYMMTDPVTLNVGGHLYTTSLTTLTRYPDSMLGAMFGGDFPTARDPQGNYFIDRDGPLFRYVLNFLRTSELTLPLDFKEFDLLRKEADFYQIEPLIQCLNDPKPLYPMDTFEEVVELSSTRKLSKYSNPVAVIITQLTITTKVHSLLEGISNYFTKWNKHMMDTRDCQVSFTFGPCDYHQEVSLRVHLMEYITKQGFTIRNTRVHHMSERANENTVEHNWTFCRLARKTDD
MDYYRVGTLVNTHGIRGEVKVVVVTDFPEERFKVGQQLSLFKTPDETTGGITVKIAKAREQKGLYFLTFEGLDNINDVERYKGWTIKVPAEALHALPAGEYYYHQIVGLQVVTTADEPLGTIKEILSPGANDVWVVKRDHGQSDVLLPKIPQVIKDVDLDAGVVTVELMEGLIDLEHHHHHH

Reference: the DeepSol protein solubility set
